# Experimental data from the nanobody polyreactivity screen of Harvey et al. (2022).
# Assay: yeast display, Sf9 membrane polyspecificity reagent, FACS + sequencing; frameworks hold sequencing errors
# How it was run: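 Sorting gates, low and high (top ~1%), were placed on anti-HA fluorescence to track expression and on streptavidin fluorescence to track reagent binding. A clone's polyreactivity label is taken from the gate it came out of. The reagent was 10% biotinylated, detergent-solubilized Sf9 membrane, applied for 1 hour at 4 °C to galactose-induced yeast display cells.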
row,Sequence,polyreactivity (PSR sort gate)
1,QVQLVESGGGLVQAGGSLRLSCAASGFIFGGNVMGWYRQAPGKEREFVAAITDGDGSTYYADSVKGRFTISRDNAKNTVYLQMNSLKPEDTAVYYCAADVYYADVYPVEYWGQGTQVTVSS,high polyreactivity
2,QVQLVESGGGLVQAGGSLRLSCAASGFIFGGYAMGWSRQAPGKERELVADISSSGGSTYYADSVKGRFTLSRDNAKNTVYLQMNSLKPEDTAVYDCAKVGWSRRYYYWGQGTQVTVSS,high polyreactivity
3,QVQLVESGGGLVQAGGSLRLSCAASGFIFGGYAMGWYRPAPGKERELVAAISSSGGSTYYADSVKGRFTISRDNAKNTVYLQMNSLKPEDTAVYYCAARIQSVSSGRWFDYWGQGTQVTVSS,high polyreactivity
4,QVQLVESGGGLVQAGGSLRLSCAASGFIFGGYAMGWYRQAPGKERALVAAITRSGGSTYYADSVKGRFTISRDNAKNTVYLQMNSLKPEDTAVYYCAAERQPYRTSSYNYWGQGTQVTVSS,high polyreactivity
5,QVQLVESGGGLVQAGGSLRLSCAASGFIFGINAMGWYRQAPGKDRELVATITSGGGTNYADSVKGRFTISRDNAKNTVYLQMNSLKPEETAVYYCAAEEDYISFYVSMDYWGQGTQVTVSS,low polyreactivity
6,QVQLVESGGGLVQAGGSLRLSCAASGFIFGINAMGWYRQEPGKERELFAAISKRTGSTYYADSVKGRFTISRDNAKNTVYLQMNSLKPEDTAFYYCNVVRYNGLDKYEYWGQGTQVTVSS,high polyreactivity
7,QVQLVESGGGLVQAGGSLRLSCAASGFIFGIYAMGWYRQAPGKERELVARISRSGVSTYYADSVKGRFTISRDNAKNTVYLQMNSLKPEDTAVYYCNAYRGGLSSEHYYWGQGTQVTVSS,high polyreactivity
8,QVQLVESGGGLVQAGGSLRLSCAASGFIFGKYAMGWYRQAPGKERELVAAITSDGRTYYADSVKGRFTISRDNAKNTVYLEMNSLKPEDTAVYYCAVDYYWYWYSGYDDYWGQGTQVTVSS,high polyreactivity
9,QVQLVESGGGLVQAGGSLRLSCAASGFIFGLNAMGWYRPAPGKERELVAAISYNGGSTYYADSVKGRFTISRDNAKNTVYLQMNSLKPEDTAVDYCNAYLYRKVGYRAYDYWGHGTQVTVSS,low polyreactivity
10,QVQLVESGGGLVQAGGSLRLSCAASGFIFGLYAMGWYRQAPGKERELVAAISSGGSTYYADSVKGRFTISRDNAKNTVYLQMNSLKPEDTAVYYCAAYYVYSEYDYWGQGTQVTVSS,high polyreactivity
11,QVQLVESGGGLVQAGGSLRLSCAASGFIFGLYDMGWYRQAPGKERELVARISWGGGTYYADSVKGRFTISRDNAKNTVYLQMNSLKPEDTAVYYCNTRTRGYYYNSYYWTKYGYWGQGTQVTVSS,high polyreactivity
12,QVQLVESGGGLVQAGGSLRLSCAASGFIFGNYPMGWYRQAPGKQRELVAAITSGGNTNYADSVKGRFTISRDNAKNTVYLQMNSLKPEDTAVYYCAADRNLYWVFSPNETEDYWGQGTQVTVSS,low polyreactivity
13,QVQLVESGGGLVQAGGSLRLSCAASGFIFGPYAMGWYRPAPGKERELVASISNSGDSTYADSVKGRFTISRDTAKNTVYLQMNSLKPEDTAVYYCNADGFVGTPSVDYDYWGQGTQVTVSS,low polyreactivity
14,QVQLVESGGGLVQAGGSLRLSCAASGFIFGPYTMGWYRQAPGKERELVAAINNSGSTNYADSVKGRFTISRDNAKNTVYLQMNCLKPEDTAVYFCAAEPIIFVRYDYWGQGTQVTVSS,low polyreactivity
15,QVQLVESGGGLVQAGGSLRLSCAASGFIFGQYALGGYRQAPGKERELVAVITSSGGRTYYADSVKGRFTISRDNAKNTVYLQMNSLKPEDTAVYYCAAPGYGLQVRGRYGYWGQGTQVTVSS,high polyreactivity
16,QVQLVESGGGLVQAGGSLRLSCAASGFIFGQYAMGWYRQAPGKERELVAAISWSGGRTNYADSVKGRYTISRDNAKNTVYLQMNSLKPEDTAVYYCAARKGKYPQYTYGYWGQGTQVTVSS,high polyreactivity
17,QVQLVESGGGLVQAGGSLRLSCAASGFIFGRYAMGWDREAPGKERELVAGIRSSGGSTYYADSVKGRFTISRDNAKNTVYLQMNSLKPEDTAVYYCAARTYGQSLDYWGQGTQVTVSS,high polyreactivity
18,QVQLVESGGGLVQAGGSLRLSCAASGFIFGRYAMGWYRPAPGKERELVAAITASGGRTYYADSVKGRFTISRDNAKNTVYIQMNSLKPEDTAVYYCNTPSLWSGEDYWGQGTQVTVSS,low polyreactivity
19,QVQLVESGGGLVQAGGSLRLSCAASGFIFGRYAMGWYRQAPGKERELVAAITWSGGRTYYADSVKGRFTISRDNAKNTVFLQMNSLKPEDTAVYYCNAQGYTTYRGDYWGQGTQVTVSS,high polyreactivity
20,QVQLVESGGGLVQAGGSLRLSCAASGFIFGRYAMGWYRQAPGKERELVAAITYSSGSTYYADSVKGRFTISRDNAKNTVYLQMNSLKPEDTAVYYCNAEFWYETLYEYDYWGQGTQVTVSS,high polyreactivity
21,QVQLVESGGGLVQAGGSLRLSCAASGFIFGRYAMGWYRQAPGKERELVAVITWSGGRTYYADSVKGRFTISRDNAKNTVYLQMNSLKPEDTAVYDCAADRYPYHYGYDYWGQGTQVTVSS,high polyreactivity
22,QVQLVESGGGLVQAGGSLRLSCAASGFIFGRYAMGWYRQAPGKETELVAAISVSGGSTYYADSVKGRFTISRDNAKNTVYLQMNSLKPEDTAVYYCNVARWVSVSRSYGGNYWGQGTQVTVSS,high polyreactivity

row,Sequence,polyreactivity (PSR sort gate)
1,QVQLVESGGGLVQAGGSLRLSCAASGFIFGSNAMGWYRQAPGKERELVAAISRSGGSTYYADSVKGRFTISRDNAKNTVYLQMNSLKPEDTAVYYCASYLYKSRYLPEYDYWGQGTQVTVSS,high polyreactivity
2,QVQLVESGGGLVQAGGSLRLSCAASGFIFGSYTMGWYRQAPGKERELVAAISSSVGRTYYADSVKGRFTISRDNAKNTVYLQMNSLKPEDTAVYYCAARRHGRVDYSQGSRESYYWGQGTQVTVSS,high polyreactivity
3,QVQLVESGGGLVQAGGSLRLSCAASGFIFGTNTMGWYRQEPGKERELVAAITSVGSTNYADSVKGRFTISRDNAKNTVYLLMNSLKPEDTAVYYCPATLYYQYGGDYWGQGTQVTVSS,low polyreactivity
4,QVQLVESGGGLVQAGGSLRLSCAASGFIFGVYAMGWYRQAPGKEREFVAAISWTGGSTSYADSVKGRFTISRDNAKNTVYLQMNSLKPEDTAVYYCARRRSYKRRFDYWGQGTQVTVSS,low polyreactivity
5,QVQLVESGGGLVQAGGSLRLSCAASGFIFGYKARGWYRQAPGKERELVAAISSSGGSTYYADSVKGRFTISRDNAKNTVYLQMKSLKPEDTAVYYCAARPVALRKYYYWGQVTQVTVSS,low polyreactivity
6,QVQLVESGGGLVQAGGSLRLSCAASGFIFGYNAMGWYRQAPGKERELVAAISSSGGSTYYADSVKGRFTISRDNAKNTVYLQMNSLKPEDTAVYYCAAESLTGYAHYDYWGQGTQVTVSS,low polyreactivity
7,QVQLVESGGGLVQAGGSLRLSCAASGFIFGYNGMGGYRQAPGKERELVAGITYSDGSTYYADSVKGRFTISRDNAKNTVYLQMNSLKPEDTAVYYCAVDVIYYWAEDYDYWGQGTQVTVSS,low polyreactivity
8,QVQLVESGGGLVQAGGSLRLSCAASGFIFGYNVKGWYRQAPGKERELVAAISSRGSSTYYADSVKGRFSISRDNAKNTVYIQMNSLKPEDTAVYYCAAYSSYNSWVSRRYGHDYWGQGTQVTVSS,high polyreactivity
9,QVQLVESGGGLVQAGGSLRLSCAASGFIFGYYAMGLYRQAPVKERELVAAITSGTGTNYADSVKGRFTISRDNAKNTVYLQMNSLKPEDTAVYYCAAYYTWLSEFGYWGQGTQVTVSS,low polyreactivity
10,QVQLVESGGGLVQAGGSLRLSCAASGFIFGYYAMGWYRQAPGKERELVAAISGDAGRTYYADSVKGRFTISRDNAKNTVYLQMNSLKAEDTAVYYCAAADTYKMDYWGQGTQVTVSS,low polyreactivity
11,QVQLVESGGGLVQAGGSLRLSCAASGFIFGYYAMGWYRQAPGKERELVAAISGDAGRTYYADSVKGRFTISRDNAKNTVYLQMNSLKPEDTAVYYCAAADTYKMDYWGQGTQVTVSS,low polyreactivity
12,QVQLVESGGGLVQAGGSLRLSCAASGFIFGYYAMGWYRQAPGKERELVAAISWSGVSTYYADSVKGRFTISSDNAKNTVDLQMNSLKPEDTAVYYCAVGYVLTGVFQARFDYWGQGTQVTVSS,high polyreactivity
13,QVQLVESGGGLVQAGGSLRLSCAASGFIFGYYAMGWYRQAPRKERELVAAISQSTGSTYYADSVKGRFSNSRDNAKNTVYLQMNSLKPEDTAVYYCNAEGPEVTTWGYVYWDWGYGYWGQGTQVTVSS,low polyreactivity
14,QVQLVESGGGLVQAGGSLRLSCAASGFIFGYYTMGWYRQAPGKERELVASISSRGGSTFYADSVKGRFTISRDNAKNTVYLQMNSLKPEDTAVYYCAVRRGVYYYPYYYWGQGTQVTVSS,high polyreactivity
15,QVQLVESGGGLVQAGGSLRLSCAASGFIFGYYTMGWYRQAPGKEREVVAAISSSGGRTYYADSVKGRFTISRDNAKNTVYLQMNSLKPEDTAVYYCAKQNRGSEPAYDYWGQGTQVTVSS,low polyreactivity
16,QVQLVESGGGLVQAGGSLRLSCAASGFIFGYYVMGWSRQAPGKERELVAAISGSGGRTYYADSVKGRFTISRDNAKNTVYLQMNSLKPEDTAVYYCNAVAFYRDYNYWGQGTQVTVSS,high polyreactivity
17,QVQLVESGGGLVQAGGSLRLSCAASGFIFHLYAMGWYRQAPGKERDLVAAIRISDGSTYYADSVKGRFTISRDNAKNSVYLQMNRLKPEDTAVYYCNVVYRYGGYNYWGQGTQVTVSS,high polyreactivity
18,QVQLVESGGGLVQAGGSLRLSCAASGFIFHSYDMGWYRPAPRKERELVASISRGGGSTYYADSVKGRFTISRDNAMNTVYLQMNSLKPEDTAVYDCSARVYSLGYGGDYWGQGTQVTVSS,high polyreactivity
19,QVQLVESGGGLVQAGGSLRLSCAASGFIFHVYAMGWYRQAPGKEREFVAGISWRGGRTYYADSVKGRFTISRDNAKNTVYLLMNSLKPEDTAVYYCAALGLNAGGKFDYWGQGTQVTVSS,high polyreactivity
20,QVQLVESGGGLVQAGGSLRLSCAASGFIFHVYAMGWYRQAPGKERELVARITSSGGNTFYADSVKGRFTISRDNAKNTVYLQMNSLKPEDTAVYYCAKSSIYTDYDYWGQGSQVTVSS,low polyreactivity
21,QVQLVESGGGLVQAGGSLRLSCAASGFIFIEYTMGWYRQAPGKERQLVAAISSGGNTYYADSVKGRFTISRDNAKNTVYLQMNSLKPEDTAVYYCNADNYAFYTQRPLDGSATYDYWGQGTQVTVSS,low polyreactivity
